Source: US12668821B2, “Enzymatic production of glucaric acid from glucuronic acid” (THE GOVERNING COUNCIL OF THE UNIVERSITY OF TORONTO, priority 2019, dated 2026)
“Also recorded” adds a separate entry of the source. Read-outs that look alike come from different tables or passages of the source.

What was measured:
[1] = Degradation of MeGlcA by H2O2 (HPAEC-PAD); assay type: physicochemical; details: up to 100 mM H2O2, 50 mM Tris pH 8.0, 40° C., 16 h
Protocol: (§1) FIG. 10: HPAEC-PAD analyses of H2O2 effects on AxyAgu115A activity and MeGlcA degradation.
(§2) AxyAgu115A (10 μg/mL) was incubated with 1% glucuronoxylan in 50 mM Tris buffer pH 8.0 in the presence of various H2O2 concentrations (0.01-100 mM). MeGlcA (1 mM) was also incubated with the same H2O2 concentrations. The reactions were kept in the dark at 40° C. for 16 h in a thermomixer (Eppendorf, USA). Catalase (200 μg/mL) was then added, and the reactions were kept incubating for another 30 min to remove H2O2 before HPAEC-PAD analysis.
Even at 200 mM H2O2, GOOX-Y300A retained more than 50% of its activity on glucose and 100% of its activity on cellobiose (Vuong et al., 2016).

[2] = Release of MeGlcA from glucuronoxylan by AxyAgu115A (HPAEC-PAD); assay type: biochemical, beechwood; details: from 1.5 g glucuronoxylan, calculated on the MeGlcA standard curve
Protocol: Glucuronoxylan (6%) was incubated with AxyAgu115A (10 μg/mL) and GOOX-Y300A (10 μg/mL) in 100 mM Tris buffer pH 8.0 at 40° C. in a rotator oven for up to 72 h. The reactions were then vacuum-filtered using 96-well filter plates (0.22-μm PVDF membrane) (Millipore, USA) in a Tecan liquid handler (500 mbar) (Tecan Trading AG, Switzerland). Enzymatic products in the flow-through were confirmed by mass spectrometry and quantified by HPAEC-PAD analysis.
Reaction samples were vacuum-filtered using 0.22-μm, PVDF filter plates (Millipore, USA) with a Tecan liquid handler (500 mbar) (Tecan Trading AG, Switzerland). […] The presence of acidic sugars was detected using an ICS5000 HPAEC-PAD system (Dionex, USA) with a CarboPac PA1 (2×250 mm) analytical column (Dionex, USA). […] Chromatograms were analyzed using Chromeleon 7.2 (Dionex, USA).
AxyAgu115A was produced with high purity (FIG. 2). The treatment of glucuronoxylan with AxyAgu115A released only MeGlcA, as analyzed by HPAEC-PAD (FIG. 3), and no additional release of MeGlcA was seen after 16 h. […]
The concentration of MeGlcA released from 1.5 g glucuronoxylan was 21.6±1.2 mM, calculated by on the MeGlcA standard curve (FIG. 5) whereas the estimated molar concentration of MeGlcA, based on a previous analysis of glucuronoxylan composition (Teleman et al., 2002), was 24.4 mM. […]

[3] = H2O2 inhibition assay of AxyAgu115A on glucuronoxylan; assay type: biochemical, beechwood
Protocol: as §1, §2
The MeGlcA concentration released by AxyAgu115A from 6% glucuronoxylan after 16 h was around the Km of GOOX-Y300A on this acidic sugar, supporting the usage of GOOX-Y300A and AxyAgu115 in a one-pot reaction. […] Thus, a one-pot sequential reaction was performed where GOOX-Y300A was added to the reaction after pre-hydrolysis of glucuronoxylan by AxyAgu115A for 4 h. Following 16 h of incubation with GOOX-Y300A, methyl glucaric acid yields were similar to those achieved using the two-pot sequential system described above (i.e., 60% yield as confirmed by LC-MS).

[4] = MeGlcA oxidation by GOOX-Y300A, substrate consumption by HPAEC-PAD; assay type: biochemical; details: after 24 h, 300 mM Tris buffer, 60 mM MeGlcA, based on substrate consumption
Description: Reaction samples were vacuum-filtered using 0.22-μm, PVDF filter plates (Millipore, USA) with a Tecan liquid handler (500 mbar) (Tecan Trading AG, Switzerland). The flow-through was collected to Nunc™ 96-well polypropylene microplates (Thermo Fisher Scientific, USA), and covered with Nunc™ 96-well silicone cap mats. The presence of acidic sugars was detected using an ICS5000 HPAEC-PAD system (Dionex, USA) with a CarboPac PA1 (2×250 mm) analytical column (Dionex, USA). The HPAEC-PAD samples were eluted at 0.25 mL/min using NaOAc gradient (0-0.5 M) in 0.1 M NaOH. Chromatograms were analyzed using Chromeleon 7.2 (Dionex, USA).
In an attempt to improve the oxidation of GOOX-Y300A, the ionic strength of the Tris buffer was increased to 300 mM and the concentration of MeGlcA was brought up to 60 mM, higher than its Km. NSI-MS confirmed an increase in the intensity ratio of methyl glucaric acid over MeGlcA (FIG. 9). […] Provided that a similar xylan source was used, the conversion yield reported from the 3-enzyme pathway by Lee et al. (2016) (Lee et al., 2016a) was estimated ca. 20%, as determined by measuring NADH absorbance at 340 nm.

[5] = Activity screening of GOOX variants and glucose oxidase on MeGlcA; assay type: biochemical
Protocol: (§3) FIG. 11: Activity screening of GOOX variants and glucose oxidase (GO) on GlcA and MeGlcA substrates. The enzymes (16 nM) were assayed at 37° C. with 10 mM GlcA and 1 mM MeGlcA in 100 mM Tris buffer pH 8.0 (for GOOX variants) or 50 mM sodium acetate pH 5.0 (for GO). The dotted line indicates the activity of GOOX-VN for MeGlcA for ease of comparison. “CtCBM22A-wtGOOX” and “CtCBM22A-Y300A” represent fusion proteins where the C terminus of the xylan-binding protein CtCBM22A (described in Vuong and Master, 2014) is fused to the N terminus GOOX.
(§4) The specific activity of GOOX-Y300A (16 nM) on MeGlcA and GlcA (1 mM) was measured in 50 mM Tris buffer pH 8.0 at 40° C. The amount of methyl glucaric acid was determined by measuring the release of H2O2 using a previously published colorimetric assay (Lin et al., 1991). The kinetics of GOOX-Y300A on these acidic sugars were measured at the same condition, but using up to 60 mM MeGlcA and GlcA and in 0.3 M Tris buffer pH 8.0.

[6] = Activity screening of GOOX variants and glucose oxidase on GlcA; assay type: biochemical; details: enzyme 16 nM, 37° C., 10 mM GlcA (FIG. 11 legend; b102 says 100 mM), 100 mM Tris pH 8.0 (GOOX variants) or 50 mM sodium acetate pH 5.0 (GO)
Protocol: as §3, §4

[7] = 200 mM H2O2; cited from earlier work
[8] = Foumani et al., 2011; read-out: Km on glucose; cited from earlier work
[9] = 200 mM H2O2; cited from earlier work; remark: listed apart in the source
[10] = Kinetics of GOOX-Y300A on MeGlcA (H2O2 colorimetric assay); assay type: biochemical; details: up to 60 mM MeGlcA, 0.3 M Tris buffer pH 8.0, 40° C.
Protocol: as §4
There was a dose response for the production of methyl glucaric acid, as the relative abundance of methyl glucaric acid increased when the substrate concentration was raised from 1 mM to 10 mM.

CO[C@@H]([C@H](O)[C@@H](O)C=O)[C@H](O)C(=O)O [MeGlcA, 4-O-methyl D-glucuronic acid]
loss of MeGlcA in the presence of H2O2 [1]: no loss of MeGlcA; also recorded: did not cause a loss of MeGlcA

B1: AxyAgu115A: GH115 α-glucuronidase from Amphibacillus xylanus, SEQ ID NO: 4 (protein, listed as Amphibacillus xylanus)
chain: MDFTLNQEMLMTDTKSGALFYQEEEALSGVRKIANKVMHDVELVFGYQPEATKDRDMLSRHAVLYGTVGHSPLLDELNKKELIDLTEIAGKREVFLFQVVDQPIQGVEKALVIAGSDKRGTIYGLFHLSEKLGVSPLVDWSGVLPARKESFSLKGDYKYVSKEPSVKYRGFFINDEWPAFGNWSAKNFGGFNAEMYDHVFELLLRLKGNYLWPAMWSARFNDDGPGLANVELADEYGVIMGASHHEPCLRYGEEYKYLRGPDSIYGDAWNFITNREGITKFWEDGLKRTGHFENIITIGMRGEADTKIMGEDATLEDNINLLRDVIQTQNKLIKEHVNPNLKEVPRMLALYKEVEPFFYGDENTPGLINSEELEDVILMLCDDNHGNLRTLPTEDMRKHSGGYGMYYHFDYHGGPVSYEWINSSYLPKIWEQMTMAYDFGVRDLWIVNVGDIATQELPLSFFLDLAYDFDKWGTNAINKTDDYTKQWIEQQFAGVFNLEQKDKVFELLNGYTKIAHNRRPEAMNVDVYHPVNYHETDQLLDRIDHLLGLAEELYQEVDQQHFTAYFALVYYPTVGNLNLQKMWLLNGKNKYAAQLNLIEANKLAEQVKACLKRDQEIVDEYHTIADGKFYGMGLSEHIGFVHWNEDENKNPVLSYVLPVNKPRLLVSIDGTELRSEGSPWHVNTLPLVDFLEPDVNQASFTISSVSEKKAEYHISTDQDWLSCSAANGVLDGKNKLSETIHVFVDRDGLADQAEGRITVKTPVGKVTIVVPVVNNDFTNYPDMTFVDTKGYISIEAEHFATQKATENLDGTLNRFEVLDGYGKTLSAIKAFPTDTHYQVGKDAPFVEYHFVTQEAGVYELEFYLQPSNPVTREGTMYAGIQVNENDVDVINVLPDGYHVDGPHWGIDVINNIRTTKTKITCEQGLNKLRIYAVSPGFALEKIVIYPDGKKLANSYLGPNETYYVGR
concentration of MeGlcA released from glucuronoxylan [2]: 21.6 ± 1.2 mM
activity lost in the presence of H2O2 ([3]; 10 mM H2O2): approximately half of AxyAgu115A activity was lost
H2O2 concentration at which activity was inhibited ([3]; 1% glucuronoxylan, 50 mM Tris pH 8.0, 40° C., 16 h): greater than 1 mM
effect of higher H2O2 concentrations on MeGlcA released from glucuronoxylan ([3]; peak area, HPAEC-PAD, FIG. 10A): lowered the amount of MeGlcA released

B2: Y300A: GOOX variant with Y300A relative to SEQ ID NO: 1 (protein, listed as Sarocladium strictum)
chain: NSINACLAAADVEFHEEDSEGWEMDGTAFNLRVDYDPVAIAIPRSTEDIAAAVQCGLDAGVQISAKGGGHSYGSYGFGGEDGHLMLELDRMYRVSVDDDNVATIQGGARLGYTALELLDQGNRALTHGTCPAVGIGGHVLGGGYGFATHTHGLTLDWLVGATVVLADASIVHVSKTENADLFWALRGGGGGFAIVSEFEFNTFEAPEIITTYQVTTTWNRKQHVAGLKALQDWAENTMPRELSMRLEINANALNWEGNYFGNAKDLKKVLQPIMKKAGGKSTISKLVETDWYGQINTYLAGADLNITYNYDVHEYFYANSLTAPRLSDEAISAFVDYKFDNSSVRPGRGWWIQWDFHGGKNSALASHSNDETAYAHRDQLWLWQFYDNIYDYENNTSPYPESGFEFMQGFVATIEDTLPEDRKGKYFNYADTTLDKEEAQKLYWRGNLEKLQAIKAKYDPEDVFGNVVSVEPIA
modifications: (1)..(206) FAD-binding domain; (207)..(474) substrate-binding domain
efficiency on MeGlcA oxidation [4]: 62%
specific activity on MeGlcA (in words) ([5]; among GOOX variants, FIG. 7): highest specific activity
nmol oxidized MeGlcA Mean ([5]; enzyme 16 nM, 37° C., 1 mM MeGlcA (FIG. 11 legend; b102 says 10 mM), 100 mM Tris pH 8.0 (GOOX variants) or 50 mM sodium acetate pH 5.0 (GO)): 2.5 nmol
activity with MeGlcA as substrate (in words) ([5]; screening, compared with wtGOOX): improved activity over wtGOOX
nmol oxidized GlcA Mean [6]: -0.03566 nmol
activity retained on glucose [7]: more than 50%
Km [8]: 8.1 mM
activity retained on cellobiose [9]: 100%
Km [10]: 21 ± 2 mM
kcat on MeGlcA [10]: 0.0152 ± 0.001 s⁻¹
